B1: α-galactosidase A: lysosomal enzyme deficient in Fabry disease, given as a single intravenous infusion for enzyme replacement (protein, UniProt P06280 32-429, looked up)
Alpha-galactosidase A: LDNGLARTPTMGWLHWERFMCNLDCQEEPDSCISEKLFMEMAELMVSEGWKDAGYEYLCIDDCWMAPQRDSEGRLQADPQRFPHGIRQLANYVHSKGLKLGIYADVGNKTCAGFPGSFGYYDIDAQTFADWGVDLLKFDGCYCDSLENLADGYKHMSLALNRTGRSIVYSCEWPLYMWPFQKPNYTEIRQYCNHWRNFADIDDSWKSIKSILDWTSFNQERIVDVAGPGGWNDPDMLVIGNFGLSWNQQVTQMALWAIMAAPLFMSNDLRHISPQAKALLQDKDVIAINQDPLGKQGYQLRQGDNFEVWERPLSGLAWAVAMINRQEIGGPRSYTIAVASLGKGVACNPACFITQLLPVKRKLGFYEWTSRLRSHINPTGTVLLQLENTMQMSLKDLL

System: Fabry mice
Experiment: Sequential enzyme replacement then small molecule therapy: GB3 re-accumulation in Fabry mouse liver
Source text: In vivo efficacy of combination enzyme replacement therapy plus small molecule therapy in Fabry disease. […] Study protocol for sequential combination of enzyme (α-galactosidase A) replacement followed by small molecule administration (NB-DNJ, AMP-DNJ or D-t-et-P4) on globotriaosylceramide (GB3) re-accumulation in Fabry mice. […] Results of study protocol for Fabry mouse liver tissue. GB3 re-accumulation at four weeks (μg GB3 per gm liver tissue) is plotted on the ordinate versus absence of small molecule treatment (Vehicle) or daily intra-peritoneal small molecule therapy with D-t-et-P4 (at either 5 mg/kg or 0.5 mg/kg), NB-DNJ (at 500 mg/kg), or AMP-DNJ (at 100 mg/kg).
Fabry mice were used to test the in vivo efficacy of combining enzyme replacement therapy with small molecule therapy in a sequential treatment format (FIG. 1). The study was designed to evaluate whether substrate inhibition (i.e. “substrate deprivation therapy”) using small molecules of the DNJ and P4 types could reduce re-accumulation of the storage material globotriaosylceramide (GB3). The study protocol (FIG. 1A) called for a single infusion of α-galactosidase A enzyme to reduce GB3 levels (measured at two weeks) to a “Baseline” level in Fabry mouse liver. GB3 re-accumulation was then measured at four weeks in control mice receiving no small molecule therapy (“Vehicle”) and in mice receiving various small molecules at various doses. Accordingly, two weeks after GB3 levels were reduced to a “Baseline” level of about 0.1 μg/g liver (FIG. 1B), a small molecule or vehicle was administered by intra-peritoneal (IP) injection.

Molecule	GB3 re-accumulation in Fabry mouse liver tissue (5 mg/kg daily IP after single α-galactosidase A infusion, four week time point, vehicle about 0.8, baseline about 0.1)	Baseline GB3 level in Fabry mouse liver (two weeks after a single infusion of α-galactosidase A enzyme)	Baseline GB3 level in Fabry mouse liver (two weeks after a single α-galactosidase A intravenous infusion)
D-threo-1-(3′,4′-ethylenedioxy)phenyl-2-palmitoylamino-3-pyrrolidino-1-propanol [D-t-et-P4, reference compound]	less than 0.4 μg/gm	–	–
B1	–	about 0.1 μg/g liver	about 0.1 μg/gm liver tissue
